From US20190359693A1 (Janssen / Centocor, published 2019)
Read-outs that look alike come from different tables or passages of the source.

What was measured:
[1] = molecular target: hemagglutinin (HA) of influenza virus H3N2 A/Wisconsin/67/05 (influenza A virus); assay: cell-based or functional assay
[2] = molecular target: hemagglutinin (HA) of influenza virus H1N1 A/California/07/09 (influenza A virus); assay: cell-based or functional assay
[3] = molecular target: hemagglutinin (HA) of influenza virus H1N1 A/Puerto Rico/8/34-MA (influenza A virus); assay: cell-based or functional assay
[4] = molecular target: hemagglutinin (HA) of influenza virus H5N1 A/Vietnam/1194/04 (influenza A virus); assay: cell-based or functional assay
[5] = molecular target: recombinant HA of H1N1 A/New Caledonia/20/1999 (influenza A virus, UniProt Q289M7 18-565); assay: biolayer interferometry (Octet), steady-state fit, geometric mean
[6] = molecular target: HA of B/Malaysia/2506/04 (Victoria) (influenza B virus); assay: cell-based or functional assay
[7] = molecular target: HA of B/Harbin/7/94 (Yamagata) (influenza B virus); assay: cell-based or functional assay
[8] = molecular target: T1, HA of B/Lee/40 (influenza B virus, UniProt P03460 16-552); assay: cell-based or functional assay
[9] = molecular target: HA of B/Harbin/7/94 (Yamagata) (influenza B virus); assay: cell-based or functional assay; remark: listed apart in the source
[10] = molecular target: HA of H5N1 A/Vietnam/1194/04 (influenza A virus); assay: cell-based or functional assay
[11] = molecular target: T1, HA of B/Lee/40; assay: cell-based or functional assay; remark: listed apart in the source
[12] = molecular target: HA of H3N2 A/HK/1/68-MA (influenza A virus); assay: cell-based or functional assay
[13] = molecular target: HA of H1N1 A/Puerto Rico/8/34-MA (influenza A virus); assay: cell-based or functional assay
[14] = molecular target: HA of H5N1 A/PR8 H5N1 HK97 (influenza A virus); assay: cell-based or functional assay
[15] = molecular target: HA of H3N2 A/HK/1/68-MA (influenza A virus); assay: cell-based or functional assay; remark: listed apart in the source
[16] = molecular target: HA of H3N2 A/Wisconsin/67/2005 (influenza A virus); assay: cell-based or functional assay
[17] = molecular target: HA of H3N2 A/Panama/2007/99 (influenza A virus); assay: cell-based or functional assay
[18] = molecular target: HA of H4 A/WF/HK/MPA892/06 (influenza A virus); assay: cell-based or functional assay
[19] = molecular target: HA of H7N7 A/PR8 H7N7-NY (influenza A virus); assay: cell-based or functional assay
[20] = molecular target: HA of H10N7 A/Chick/Germany/N/49 (influenza A virus); assay: cell-based or functional assay
[21] = molecular target: T2, HA of H3N2 A/HK/1/68 (influenza A virus, UniProt Q91MA7 17-530); assay: BLI (Octet)
[22] = molecular target: T2, HA of H3N2 A/HK/1/68; assay: cell-based or functional assay
[23] = molecular target: HA of H4 A/WF/HK/MPA892/06 (influenza A virus); assay: cell-based or functional assay; remark: listed apart in the source
[24] = molecular target: HA of H7N7 A/PR8 H7N7-NY (influenza A virus); assay: cell-based or functional assay; remark: listed apart in the source
[25] = molecular target: HA of H10N7 A/Chick/Germany/N/49 (influenza A virus); assay: cell-based or functional assay; remark: listed apart in the source
[26] = molecular target: HA of H2N2 A/Guiyang/1/57 (influenza A virus); assay: cell-based or functional assay
[27] = molecular target: HA of H2N2 A/WF/HK/MPU3156/05 (influenza A virus); assay: cell-based or functional assay
[28] = molecular target: HA of H4 A/WF/HK/MPA892/06 (influenza A virus); assay: cell-based or functional assay; remark: listed apart in the source
[29] = molecular target: HA of H10N7 A/Chick/Germany/N/49 (influenza A virus); assay: cell-based or functional assay; remark: listed apart in the source
[30] = molecular target: HA of H7N9 A/Anhui/1/13 (influenza A virus); assay: cell-based or functional assay
[31] = molecular target: T2, HA of H3N2 A/HK/1/68; assay: cell-based or functional assay; remark: listed apart in the source
[32] = molecular target: HA of H7N7 A/Netherlands/219/2003 (influenza A virus, UniProt P36346 19-563); assay: AlphaLISA competition vs CR9114

B1: MD1210 (bispecific antibody)
chain: EVQLVESGGGLVQAGGSLKLSCAASGRTYAMGWFRQAPGKEREFVAHINALGTRTYYSDSVKGRFTISRDNAKNTEYLEMNNLKPEDTAVYYCTAQGQWRAAPVAVAAEYEFWGQGTQVTVSSAAAGGGGSGGGGSGGGGSGGGGSGGGGSGGGGSGGGGSEVQLVESGGGLVQPGGSLRLSCAVSISIFDIYAMDWYRQAPGKQRDLVATSFRDGSTNYADSVKGRFTISRDNAKNTLYLQMNSLKPEDTAVYLCHVSLYRDPLGVAGGMGVYWGKGALVTVSS
With B1 the neutralization titer [1] was 118 nM, the neutralization titer [2] was 2.5 nM and the neutralization titer [3] was 21.9 nM. For the same binder, the neutralization titer [4] was 21.4 nM and the Kd [5] was 0.7 nM.

B2: SD1086 (VHH)
VHH: EVQLVESGGGLVQAGGSLRLSCTASGSISSIDYMRWYRQYPGKHRELVATITSGGAADSRDSVKGRFTVSRGNAANTMYLQMNNLKPEDTAVYYCNAYGLEIGAHWGRGTQVTVSS
B2 was tested, and the VNA titer [6] was greater than 1000 nM and the VNA titer [7] was greater than 1000 nM.

B3: SD1083 (VHH)
VHH: EVQLVESGGGLVQPGGSLRLSCAATGFTLENKAIGWFRQTPGSEREGVLCISKSGSWTYYTDSMRGRFTISRDNAENTVYLQMDSLKPEDTAVYYCATTTAGGGLCWDGTTFSRLASSWGQGTQVTVSS
With B3 the VNA titer [6] was 294 nM, the VNA titer [7] was 259 nM and the VNA titer [8] was 217 nM. It also gave a hemagglutination inhibition titer [9] greater than 50 µg/mL, a hemagglutination inhibition titer [10] greater than 50 µg/mL and a hemagglutination inhibition titer [11] greater than 50 µg/mL.

B4: SD1034 (VHH)
VHH: EVQLVESGGGLVQAGGSLRLSCAASGTIFGIRVNTMGWYRQAPGEQRELVATITRSGGTNYADSVKDRFTISGDFAKDTVYLQMMHLKPEDTAVYYCNGRWALTDYWGQGTQVTVSS
Work on B4 yielded a VNA titer [12] greater than 1000 nM.

B5: MD1212 (VHH)
chain: EVQLVESGGGLVQPGGSLRLSCAVSISIFDIYAMDWYRQAPGKQRDLVATSFRDGSTNYADSVKGRFTISRDNAKNTLYLQMNSLKPEDTAVYLCHVSLYRDPLGVAGGMGVYWGKGALVTVSSAAAGGGGSGGGGSGGGGSGGGGSGGGGSGGGGSGGGGSEVQLVESGGGLVQPGGSLRLSCAVSISIFDIYAMDWYRQAPGKQRDLVATSFRDGSTNYADSVKGRFTISRDNAKNTLYLQMNSLKPEDTAVYLCHVSLYRDPLGVAGGMGVYWGKGALVTVSS
B5 showed a neutralization titer [1] of 49.5 nM, a neutralization titer [2] of 3.7 nM and a neutralization titer [3] of 11.7 nM. For the same binder, the neutralization titer [4] was 14.8 nM and the Kd [5] was 1.4 nM.

B6: SD1048 (VHH)
VHH: EVQLVESGGGVVQPGGSLRLSCVASGRTSSMYSIGWFRQAPGKEREFVAVIGWYSGRTFYTDSMKGRFTISRDNARNTVYLQMNSLKPEDTAVYYCAAANGPLRLSNQADYWGQGTQVTVSS
For B6, the VNA titer [13] was greater than 1000 nM, the VNA titer [14] was greater than 1000 nM and the VNA titer [15] was 110 nM. For the same binder, the VNA titer [16] was greater than 1000 nM, the VNA titer [17] was greater than 1000 nM and the VNA titer [18] was 34.3 nM. The VNA titer [19] was 93 nM and the VNA titer [20] was 34.3 nM.

B7: SD1045 (VHH)
VHH: EVQLVESGGGLVQAGGSLRLSCAASGSSFSINVMGWYRQAPGKQREMVATITYGGSTNYVDSVKGRFTISRDNAKNTVYLQMNSLKPEDTAVYYCNSRLAQINYWGQGTQVTVSS
notes: llama sdAb
With B7 the binding result [21] was “no binding (tested: HA 20 µg/mL)”, the VNA titer [22] was greater than 1000 nM and the VNA titer [23] was 492 nM. The VNA titer [24] was greater than 1000 nM and the VNA titer [25] was 985 nM.

B8: SD1076 (VHH)
VHH: EVQLVESGGGLVQAGGSLTLSCAGSGFAFSIATMGWYRQAPGKQRELVADITSGGSTNYADSVKGRFTISRDNAKNTVYLQMNSLKPEDTAVYYCNADSLATGWRQYSYWGKGTQVTVSS
notes: llama sdAb
In the case of B8, the binding result [21] is reported as “no binding (tested: HA 20 µg/mL)”, the VNA titer [12] is reported as greater than 1000 nM and the VNA titer [26] is reported as greater than 1000 nM. It also gave a VNA titer [27] of 38.5 nM, a VNA titer [28] greater than 1000 nM and a VNA titer [29] greater than 1000 nM.

B9: SD1049 (VHH)
VHH: EVQLVESGGGLVQAGGSLRLSCAASGRTLSLYSVGWFRQAPGKEREFVATIGWNSGRTFYVDSMKGRFTISRDNAKNTVYLQMNDLKVEDTAVYYCAAAKGPLRLSNQADYWGQGTQVTVSS
For B9, the VNA titer [13] was greater than 1000 nM and the VNA titer [15] was 76.1 nM.

B10: SD1046 (VHH)
VHH: EVQLVESGGGLVQAGDSLRISCAASGRTLSIYSMGWFRQAPGKEREFVATIGWNSGRTFYPDSLKGRFTISRDNARNTLYLQMNNLRPEDTAVYYCAAAKGPLRLSSQADYWGQGTQVTVSS
For B10, the VNA titer [30] was 46.1 nM, the VNA titer [13] was greater than 1000 nM and the VNA titer [14] was greater than 1000 nM. It also gave a VNA titer [15] of 26.4 nM, a VNA titer [31] of 202 nM and a VNA titer [16] greater than 1000 nM. For the same binder, the VNA titer [17] was greater than 1000 nM, the VNA titer [18] was 34.3 nM and the VNA titer [19] was 25.9 nM. For the same binder, the VNA titer [20] was 34.3 nM.

B11: MD1209 (VHH)
chain: EVQLVESGGGLVQAGGSLKLSCAASGRTYAMGWFRQAPGKEREFVAHINALGTRTYYSDSVKGRFTISRDNAKNTEYLEMNNLKPEDTAVYYCTAQGQWRAAPVAVAAEYEFWGQGTQVTVSSAAAGGGGSGGGGSGGGGSGGGGSGGGGSGGGGSGGGGSEVQLVESGGGLVQAGGSLKLSCAASGRTYAMGWFRQAPGKEREFVAHINALGTRTYYSDSVKGRFTISRDNAKNTEYLEMNNLKPEDTAVYYCTAQGQWRAAPVAVAAEYEFWGQGTQVTVSS
Binder B11 has a neutralization titer [1] of 109 nM, a neutralization titer [2] of 10.1 nM and a neutralization titer [3] of 221 nM. For the same binder, the neutralization titer [4] was less than 1000 nM and the Kd [5] was 1.9 nM.

B12: MD1211 (bispecific antibody)
chain: EVQLVESGGGLVQPGGSLRLSCAVSISIFDIYAMDWYRQAPGKQRDLVATSFRDGSTNYADSVKGRFTISRDNAKNTLYLQMNSLKPEDTAVYLCHVSLYRDPLGVAGGMGVYWGKGALVTVSSAAAGGGGSGGGGSGGGGSGGGGSGGGGSGGGGSGGGGSEVQLVESGGGLVQAGGSLKLSCAASGRTYAMGWFRQAPGKEREFVAHINALGTRTYYSDSVKGRFTISRDNAKNTEYLEMNNLKPEDTAVYYCTAQGQWRAAPVAVAAEYEFWGQGTQVTVSS
For B12, the neutralization titer [1] was 19.3 nM, the neutralization titer [2] was 4 nM and the neutralization titer [3] was 9.9 nM. The neutralization titer [4] was 7.6 nM and the Kd [5] was 1.7 nM.

B13: SD1014 (VHH)
VHH: EVQLVESGGGLVQAGGSLTLSCAASGRTYAMAWFRQAPGKEREFVAHINALGTRTYYSDSVKGRFTISRDNAKNTEYLQMNSLNPEDTAVYYCAAGGQWRAAPVADAAQYDFWGQGTQVTVSS
notes: llama sdAb
B13 was tested, and the VNA titer [13] was greater than 1000 nM, the VNA titer [15] was greater than 1000 nM and the pIC50 [32] was 9.2.

B14: SD1017 (VHH)
VHH: EVQLVESGGGLVQAGGSLRLSCAASGRTYAMAWFRQAPGKEREFVAHINALGTRAYYSDSVEGRFTISRDNAKNTGYLQMNSLEPEDTAVYVCAAGGQWRAAPVADAAQYDFWGQGTQVTVSS
In the case of B14, the VNA titer [13] is reported as greater than 1000 nM, the VNA titer [15] is reported as greater than 1000 nM and the VNA titer [16] is reported as greater than 1000 nM.

B15: SD1087 (VHH)
VHH: EVQLVESGGGLVQPGGSLRLSCVISGLSLDTYAVGWFRQAPGKEREGITCISSGHGMTYYADSVKGRFTVSTDNAKNTVYLQMNGLQPEDTARYYCATESRYYCSDNWPAPQRYIYWGQGTQVTVSS
In the case of B15, the VNA titer [6] is reported as 79.1 nM, the VNA titer [7] is reported as 503 nM and the VNA titer [8] is reported as 6.5 nM. The hemagglutination inhibition titer [9] was greater than 50 µg/mL, the hemagglutination inhibition titer [10] was greater than 50 µg/mL and the hemagglutination inhibition titer [11] was greater than 50 µg/mL.
